Target: T1, WT-UreE dimer (Helicobacter pylori urease accessory protein UreE) (Helicobacter pylori, UniProt Q09064 1-170)
T1 sequence: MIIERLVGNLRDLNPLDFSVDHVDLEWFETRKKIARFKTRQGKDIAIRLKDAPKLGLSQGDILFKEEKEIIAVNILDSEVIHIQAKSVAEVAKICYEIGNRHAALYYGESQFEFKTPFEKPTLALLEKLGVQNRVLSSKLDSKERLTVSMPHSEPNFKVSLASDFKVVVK
Assay: ITC

Binder | Kd [nM] | dH [kcal/mol] | stoichiometry N [HypA per UreE dimer]
WT-HypA (Helicobacter pylori hydrogenase maturation protein HypA, unmodified N-terminus) (natural protein) MHEYSVVSSLIALCEEHAKKNQAHKIERVVVGIGERSAMDKSLFVSAFETFREESLVCKDAILDIVDEKVELECKDCSHVFKPNALDYGVCEKCHSKNVIITQGNEMRLLSLEMLAE | 960 ± 90 | -6.27 ± 0.06 | 1.5 ± 0.1
L2*-HypA (Met1_His2insLeu variant of Helicobacter pylori HypA) (natural protein) MLHEYSVVSSLIALCEEHAKKNQAHKIERVVVGIGERSAMDKSLFVSAFETFREESLVCKDAILDIVDEKVELECKDCSHVFKPNALDYGVCEKCHSKNVIITQGNEMRLLSLEMLAE | 690 ± 110 | -3.86 ± 0.06 | 1.6 ± 0.2

From article PMC5540134 (Biochemistry, 2017)
